T1: PDZD8, Q8NEN9
T1 sequence (Q8NEN9 361-459, limits assumed, looked up): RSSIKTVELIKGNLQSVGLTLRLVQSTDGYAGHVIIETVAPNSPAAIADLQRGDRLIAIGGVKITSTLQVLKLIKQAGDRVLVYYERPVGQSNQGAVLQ

T2: PARD6G, Q9BYG4
T2 sequence (Q9BYG4 153-261, limits assumed, looked up): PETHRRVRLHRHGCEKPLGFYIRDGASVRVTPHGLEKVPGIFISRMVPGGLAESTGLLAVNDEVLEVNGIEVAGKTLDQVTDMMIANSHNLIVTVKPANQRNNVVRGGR

T3: SHROOM4, Q9ULL8
T3 sequence (Q9ULL8 5-102, limits assumed, looked up): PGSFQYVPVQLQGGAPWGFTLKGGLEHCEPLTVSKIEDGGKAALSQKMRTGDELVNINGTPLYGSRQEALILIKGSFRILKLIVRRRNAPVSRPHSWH

T4: TIAM2, Q8IVF5
T4 sequence (Q8IVF5 885-986, limits assumed, looked up): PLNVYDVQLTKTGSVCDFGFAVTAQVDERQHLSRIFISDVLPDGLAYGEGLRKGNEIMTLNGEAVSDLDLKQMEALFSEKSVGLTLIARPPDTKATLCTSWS

T5: SIPA1L3, O60292
T5 sequence (O60292 961-1052, limits assumed, looked up): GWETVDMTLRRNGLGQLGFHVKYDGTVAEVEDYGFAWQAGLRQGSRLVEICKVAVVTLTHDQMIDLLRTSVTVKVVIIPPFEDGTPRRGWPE

T6: NHERF1_2, O14745
T6 sequence (O14745 149-244, limits assumed, looked up): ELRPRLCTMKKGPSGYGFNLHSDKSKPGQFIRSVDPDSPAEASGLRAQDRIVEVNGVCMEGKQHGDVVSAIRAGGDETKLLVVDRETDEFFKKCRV

T7: MPDZ_11, O75970
T7 sequence (O75970 1720-1817, limits assumed, looked up): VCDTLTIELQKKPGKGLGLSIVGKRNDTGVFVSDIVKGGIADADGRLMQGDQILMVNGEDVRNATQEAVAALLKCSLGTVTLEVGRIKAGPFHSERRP

T8: PTPN13_5, Q12923
T8 sequence (Q12923 1877-1975, limits assumed, looked up): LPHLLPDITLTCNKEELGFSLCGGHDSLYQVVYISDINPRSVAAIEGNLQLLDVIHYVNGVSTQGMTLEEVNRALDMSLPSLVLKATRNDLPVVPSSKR

T9: MPDZ_7, O75970
T9 sequence (O75970 1146-1253, limits assumed, looked up): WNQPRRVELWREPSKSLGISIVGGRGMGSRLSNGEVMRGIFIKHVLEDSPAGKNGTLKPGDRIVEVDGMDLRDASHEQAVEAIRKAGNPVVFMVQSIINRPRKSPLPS

T10: PDZD2_1, O15018
T10 sequence (O15018 80-192, limits assumed, looked up): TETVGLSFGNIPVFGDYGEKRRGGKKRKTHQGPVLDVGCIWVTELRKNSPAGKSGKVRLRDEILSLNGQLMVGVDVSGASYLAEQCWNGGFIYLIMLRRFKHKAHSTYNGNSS

T11: DVL1, O14640
T11 sequence (O14640 246-333, limits assumed, looked up): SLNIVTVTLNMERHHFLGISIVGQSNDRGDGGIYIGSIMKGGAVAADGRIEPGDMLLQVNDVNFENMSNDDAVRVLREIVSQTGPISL


Experiments:
Test in all cases: holdup assay
Design in all cases: key: below the threshold = too weak to quantify, mostly under pKd 3.1 to 4
Conditions in all cases: plain residues with an end cap or a label only (N-terminal biotin on a linker: ttds)
[1] = molecular target: PARD3_1, Q8TEW0
Chain of PARD3_1, Q8TEW0 (Q8TEW0 264-372): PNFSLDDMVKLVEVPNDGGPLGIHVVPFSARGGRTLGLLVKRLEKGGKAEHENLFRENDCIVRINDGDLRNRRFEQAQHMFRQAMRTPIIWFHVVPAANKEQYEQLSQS

[2] = molecular target: DLG2_1, Q15700
[3] = molecular target: T1, PDZD8, Q8NEN9
[4] = molecular target: GRIP2_2, Q9C0E4
Chain of GRIP2_2, Q9C0E4 (Q9C0E4 137-245): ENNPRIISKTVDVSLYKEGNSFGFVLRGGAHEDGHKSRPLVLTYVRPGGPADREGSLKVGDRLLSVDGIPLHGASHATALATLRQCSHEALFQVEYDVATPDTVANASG

[5] = molecular target: T2, PARD6G, Q9BYG4
[6] = molecular target: TJP1_1, Q07157
Chain of TJP1_1, Q07157 (Q07157 18-120): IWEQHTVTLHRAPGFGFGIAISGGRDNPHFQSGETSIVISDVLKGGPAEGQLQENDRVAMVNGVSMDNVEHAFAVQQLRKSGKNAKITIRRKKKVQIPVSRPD

[7] = molecular target: MAST2, Q6P0Q8
Chain of MAST2, Q6P0Q8 (Q6P0Q8 1099-1202): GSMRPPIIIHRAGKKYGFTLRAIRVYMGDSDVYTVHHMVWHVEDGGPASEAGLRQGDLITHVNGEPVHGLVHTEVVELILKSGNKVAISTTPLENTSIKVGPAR

[8] = molecular target: T3, SHROOM4, Q9ULL8
[9] = molecular target: RIMS2, Q9UQ26
Chain of RIMS2, Q9UQ26 (Q9UQ26 637-758): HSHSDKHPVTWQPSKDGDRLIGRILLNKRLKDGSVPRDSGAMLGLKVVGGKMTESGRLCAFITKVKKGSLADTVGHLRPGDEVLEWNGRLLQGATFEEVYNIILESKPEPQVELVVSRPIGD

[10] = molecular target: SDCBP_1, O00560
Chain of SDCBP_1, O00560 (O00560 111-198): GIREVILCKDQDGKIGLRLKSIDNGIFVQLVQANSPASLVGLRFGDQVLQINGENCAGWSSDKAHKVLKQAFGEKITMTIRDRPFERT

[11] = molecular target: DVL2, O14641
Chain of DVL2, O14641 (O14641 260-359): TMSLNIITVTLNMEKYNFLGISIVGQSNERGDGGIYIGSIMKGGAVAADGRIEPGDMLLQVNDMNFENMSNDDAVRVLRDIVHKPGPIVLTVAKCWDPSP

[12] = molecular target: Inadl_7, Q8NI35
Chain of Inadl_7, Q8NI35 (Q8NI35 1219-1332): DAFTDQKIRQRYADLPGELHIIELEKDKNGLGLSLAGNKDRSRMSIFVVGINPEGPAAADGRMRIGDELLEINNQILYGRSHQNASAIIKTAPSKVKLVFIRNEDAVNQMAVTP

[13] = molecular target: T4, TIAM2, Q8IVF5
[14] = molecular target: T5, SIPA1L3, O60292
[15] = molecular target: NHERF4_3, Q86UT5
Chain of NHERF4_3, Q86UT5 (Q86UT5 325-412): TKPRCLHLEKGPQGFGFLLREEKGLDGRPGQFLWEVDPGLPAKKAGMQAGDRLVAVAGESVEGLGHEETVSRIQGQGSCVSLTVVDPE

[16] = molecular target: FRMPD2_1, Q68DX3
Chain of FRMPD2_1, Q68DX3 (Q68DX3 770-861): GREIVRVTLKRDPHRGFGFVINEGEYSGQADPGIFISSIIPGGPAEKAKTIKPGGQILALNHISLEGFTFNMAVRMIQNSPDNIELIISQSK

[17] = molecular target: T6, NHERF1_2, O14745
[18] = molecular target: MAGIX, Q9H6Y5
Chain of MAGIX, Q9H6Y5 (Q9H6Y5 118-211): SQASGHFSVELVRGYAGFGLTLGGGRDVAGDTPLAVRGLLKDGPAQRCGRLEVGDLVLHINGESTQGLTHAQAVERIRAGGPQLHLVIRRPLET

[19] = molecular target: RGS3, P49796-9
Chain of RGS3, P49796-9 (P49796 other isoform, or with tags, fused parts or gaps): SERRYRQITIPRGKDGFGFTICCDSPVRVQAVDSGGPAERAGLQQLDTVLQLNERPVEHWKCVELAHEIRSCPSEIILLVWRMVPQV

[20] = molecular target: T7, MPDZ_11, O75970
[21] = molecular target: T8, PTPN13_5, Q12923
[22] = molecular target: GIPC3, Q8TF64
Chain of GIPC3, Q8TF64 (Q8TF64 107-202): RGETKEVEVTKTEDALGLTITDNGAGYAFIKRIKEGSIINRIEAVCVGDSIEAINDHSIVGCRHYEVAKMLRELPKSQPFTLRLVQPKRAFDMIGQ

[23] = molecular target: T9, MPDZ_7, O75970
[24] = molecular target: T10, PDZD2_1, O15018
[25] = molecular target: T11, DVL1, O14640
[26] = molecular target: MAGI3_6, Q5TCQ9
Chain of MAGI3_6, Q5TCQ9 (Q5TCQ9 1014-1103): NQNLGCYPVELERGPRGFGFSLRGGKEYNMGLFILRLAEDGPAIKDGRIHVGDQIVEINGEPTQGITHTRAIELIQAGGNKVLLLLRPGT

pKd [1]	pKd [2]	pKd [3]	pKd [4]	pKd [5]	pKd [6]	pKd [7]	pKd [8]	pKd [9]	pKd [10]	pKd [11]	pKd [12]	pKd [13]	pKd [14]	pKd [15]	pKd [16]	pKd [17]	pKd [18]	pKd [19]	pKd [20]	Binder	other results
below the threshold	4.34	below the threshold	4.25	below the threshold	below the threshold	4.88	below the threshold	below the threshold	below the threshold	below the threshold	4.36	below the threshold	below the threshold	below the threshold	below the threshold	below the threshold	below the threshold	below the threshold	below the threshold	PSRDRKETSI [RALBP1, Q15311]	pKd [21]: below the threshold; pKd [22]: below the threshold; pKd [23]: below the threshold; pKd [24]: below the threshold; pKd [25]: below the threshold; pKd [26]: below the threshold
below the threshold	4.95	below the threshold	below the threshold	below the threshold	below the threshold	5.13	below the threshold	below the threshold	below the threshold	below the threshold	4.51	below the threshold	below the threshold	below the threshold	below the threshold	below the threshold	below the threshold	below the threshold	below the threshold	KLVIKTETTV [RASSF6, Q6ZTQ3]	pKd [21]: below the threshold; pKd [22]: below the threshold; pKd [23]: below the threshold; pKd [24]: below the threshold; pKd [25]: below the threshold; pKd [26]: 4.15

From paper PMC9482650, “Quantitative fragmentomics allow affinity mapping of interactomes” (Nature Communications, 2022)
